Test results as given in patent US20070066516A1, “Compounds comprising cyclized somatostatin receptor binding peptides” (priority 2005, published 2007).
Like-named read-outs stand apart in the source and are kept apart here. Where a SMILES comes first, the peptide text is derived from it. Bridges are numbered along the chain shown (N, C = ends). Roman numbers before positions name the chains, in order. Where no end group is shown, it is not given here. [ ]: non-standard residue; d: D form. βDpr = 2,3-diaminopropanoic acid whose beta-amino group bears the -CH2CO- link to the S of (NMe)hCys; GlyMeDOTA = DOTA chelator on the lysine side chain; Tpi = O=C(O)[C@@H]1Cc2c([nH]c3ccccc23)CN1; βAla(cyclopropyl) = beta-Ala(cyclopropyl); Dip = N[C@H](C(=O)O)C(c1ccccc1)c1ccccc1; Phe(4-NH2) = Nc1ccc(C[C@H](N)C(=O)O)cc1; Phe(4-F) = N[C@@H](Cc1ccc(F)cc1)C(=O)O; 1Nal = N[C@@H](Cc1cccc2ccccc12)C(=O)O; NMeF = CN[C@@H](Cc1ccccc1)C(=O)O; NMehCys = CN[C@@H](CCS)C(=O)O; Thz = O=C(O)[C@@H]1CSCN1; Dap = NC[C@H](N)C(=O)O

B1: P2267 (peptide)
peptide: cyclo(Y[dW]K[Dap]M[NMeF])
SMILES: CSCC[C@@H]1NC(=O)[C@H](CN)NC(=O)[C@H](CCCCN)NC(=O)[C@@H](Cc2c[nH]c3ccccc23)NC(=O)[C@H](Cc2ccc(O)cc2)NC(=O)[C@H](Cc2ccccc2)N(C)C1=O
notes: Cyclic hexapeptide; also called cyclo[Tyr-DTrp-Lys-Dpr-Met-(NMe)Phe]
B2: P2323 (peptide)
peptide: cyclo([1Nal][dW]KTK(GlyMeDOTA)[NMeF])
notes: Cyclic hexapeptide carrying a DOTA chelator on Lys 5; also called cyclo[1Nal-DTrp-Lys-Thr-Lys(GlyMeDOTA)-(N-Me)Phe]
B3: P2269 (peptide)
peptide: cyclo(W[dW]KTM[NMeF])
SMILES: CSCC[C@@H]1NC(=O)[C@H]([C@@H](C)O)NC(=O)[C@H](CCCCN)NC(=O)[C@@H](Cc2c[nH]c3ccccc23)NC(=O)[C@H](Cc2c[nH]c3ccccc23)NC(=O)[C@H](Cc2ccccc2)N(C)C1=O
notes: also called cyclo[Trp-DTrp-Lys-Thr-Met-(NMe)Phe]
B4: P2274 (peptide)
peptide: cyclo(Y[dW]KTM[Tpi])
SMILES: CSCC[C@@H]1NC(=O)[C@H]([C@@H](C)O)NC(=O)[C@H](CCCCN)NC(=O)[C@@H](Cc2c[nH]c3ccccc23)NC(=O)[C@H](Cc2ccc(O)cc2)NC(=O)[C@@H]2Cc3c([nH]c4ccccc34)CN2C1=O
notes: Cyclic hexapeptide; also called cyclo[Tyr-DTrp-Lys-Thr-Met-Tpi]
B5: P2300 (peptide)
peptide: cyclo(Y[dW]K[βAla(cyclopropyl)]M[NMeF])
notes: Cyclic hexapeptide; also called cyclo[Tyr-DTrp-Lys-BAla(cyclopropyl)-Met-(N-Me)Phe]
B6: ReP2045 (peptide)
peptide 1: Y[dW]KTF[NMehCys]
peptide 2: [βDpr][Phe(4-NH2)]CTS-OH
modifications: thioether I:6-II:1 via CH2CO; not fully specified; also: head-to-tail to a chain's N/C-terminus
notes: also called cyclo[Tyr-DTrp-Lys-Thr-Phe-(NMe)hCys]-CH2CO-βDpr-Phe(4-NH2)-Cys-Thr-Ser-OH-[R = 0]
B7: P2045 (peptide)
peptide 1: Y[dW]KTF[NMehCys]
peptide 2: [βDpr][Phe(4-NH2)]CTS-OH
modifications: thioether I:6-II:1 via CH2CO; also: head-to-tail to a chain's N/C-terminus
notes: also called cyclo[Tyr-DTrp-Lys-Thr-Phe-(NMe)hCys]-CH2CO-βDpr-Phe(4-NH2)-Cys-Thr-Ser-OH
B8: P1839 (peptide)
peptide: cyclo(Y[dW]KTF[NMehCys])
SMILES: C[C@@H](O)[C@@H]1NC(=O)[C@H](CCCCN)NC(=O)[C@@H](Cc2c[nH]c3ccccc23)NC(=O)[C@H](Cc2ccc(O)cc2)NC(=O)[C@H](CCS)N(C)C(=O)[C@H](Cc2ccccc2)NC1=O
notes: Known somatostatin analogue tested as comparison; also called cyclo[Tyr-DTrp-Lys-Thr-Phe-(NMe)hCys]

What was measured:
SSTR2 = SSTR2 (Homo sapiens, UniProt P30874); assay: Radioligand binding assay on membranes of CHO-K1 cells expressing SSTR2; conditions: membranes from CHO-K1 cells stably expressing cloned somatostatin receptor 2
Procedure: (§1) Radiolabeling binding assays were carried out as described in the prior art like, e.g. in Gazal S. et al (2002) J. Med. Chem. 45: 1665-1671. The radioligand binding assays were carried out on membranes prepared from CHO-K1 cells stably expressing individually cloned somatostatin receptors 2 or 5 (SSTR2 or SSTR5). Cells were grown for 2 days for almost confluence and were washed and scraped into 50 mM ice-cold Tris-HCl, pH 7.8, containing 1 mM EGTA, 5 mM MgCl2, […], 0.1 mM PMSF, and 0.5 mg/mL aprotinin (buffer A) and were centrifuged at 10,000 rpm for 10 min at 4° C. (in Sorvall RC 26 Plus ultracentrifuge, rotor SS-34). The pellet was resuspended in buffer A and homogenized with a Polytron PT 1200 homogenizer (Kinematica AG, Switzerland) (setting 2, 3 strokes 10 s each). The homogenate was then centrifuged at 20 000 rpm for 20 min at 4° C. The pellet was resuspended in buffer A and homogenized using the Polytron homogenizer (setting 2, 3 strokes 5 s each). The protein content was determined by Bradford, and the membrane preparation was diluted in buffer A containing 1 mg/mL bovine serum albumin (BSA) to a final 0.2 or 0.4 mg/mL membrane protein (depending on the specific somatostatin receptor used).
(§2) The radioligand binding assay was performed in 96 well microtiter plates (Maxisorp plates, Nunc, Denmark). Cell membranes ([…] protein) were incubated with the various cyclized peptides indicated in Table 1 & 2, which comprised a lanthanide chelation unit, in a final volume of 250 μL, for 45 min. at room temperature in the presence or absence of competing peptides. Nonspecific binding was defined as the radioactivity remaining bound in the presence of […] somatostatin. At the end of the binding, reaction free radioligand was separated from bound Ligand by rapid filtration through UniFilter GF/C plates preincubated in a solution of 5 g/L polyethyleneimine and 1 g/L BSA. The filtration was performed in Filter-Mate Cell Harvester (Packard Instrument Company, U.S.A.). After filtration, the filters were washed several times with cold buffer A containing 1 mg/mL BSA and allowed to dry overnight at room temperature. Then, bound radioactivity was counted. The binding assays were performed in triplicate wells. Data from radioligand binding were used to generate inhibition curves, and IC50 values were determined for each of the tested peptides. The saturation binding data were analyzed by the method of Scatchard, and IC50 values are expressed as mean±SEM (standard error of the mean).

SSTR5 = SSTR5 (Homo sapiens, UniProt P35346); assay: Radioligand binding assay on membranes of CHO-K1 cells expressing SSTR5; conditions: for IC50: membranes from CHO-K1 cells stably expressing cloned somatostatin receptor 5; for Ratio 2/5 in %: ratio of IC50 SSTR2 / IC50 SSTR5 in %
Procedure: as §1, §2

somatostatin receptor 2 [1] = target: T1, somatostatin receptor 2 (UniProt P30874 1-369, limits assumed); assay: radioligand competition binding, membranes of CHO-K1 cells expressing SSTR2
T1 construct: whole, on cells; Assayed as membrane preparation of CHO-K1 cells stably expressing the cloned receptor; also called SSTR2; somatostatin receptor subtype 2

somatostatin receptor 5 [2] = target: T2, somatostatin receptor 5 (UniProt P35346 1-364, limits assumed); assay: radioligand competition binding, membranes of CHO-K1 cells expressing SSTR5
T2 construct: whole, on cells; Assayed as membrane preparation of CHO-K1 cells stably expressing the cloned receptor; also called SSTR5; somatostatin receptor subtype 5

somatostatin receptor 5 [3] = target: T2, somatostatin receptor 5; assay: ratio of IC50 on SSTR2 to IC50 on SSTR5 (reference SSTR2), radioligand competition binding on CHO-K1 membranes
somatostatin receptor 2 [4] = target: T1, somatostatin receptor 2; assay: radioligand competition binding, membranes of CHO-K1 cells expressing SSTR2; remark: listed apart in the source
somatostatin receptor 5 [5] = target: T2, somatostatin receptor 5; assay: radioligand competition binding, membranes of CHO-K1 cells expressing SSTR5; remark: listed apart in the source
somatostatin receptor 5 [6] = target: T2, somatostatin receptor 5; assay: ratio of IC50 on SSTR2 to IC50 on SSTR5 (reference SSTR2), radioligand competition binding on CHO-K1 membranes; remark: listed apart in the source

Chain of SSTR2 (P30874 whole entry): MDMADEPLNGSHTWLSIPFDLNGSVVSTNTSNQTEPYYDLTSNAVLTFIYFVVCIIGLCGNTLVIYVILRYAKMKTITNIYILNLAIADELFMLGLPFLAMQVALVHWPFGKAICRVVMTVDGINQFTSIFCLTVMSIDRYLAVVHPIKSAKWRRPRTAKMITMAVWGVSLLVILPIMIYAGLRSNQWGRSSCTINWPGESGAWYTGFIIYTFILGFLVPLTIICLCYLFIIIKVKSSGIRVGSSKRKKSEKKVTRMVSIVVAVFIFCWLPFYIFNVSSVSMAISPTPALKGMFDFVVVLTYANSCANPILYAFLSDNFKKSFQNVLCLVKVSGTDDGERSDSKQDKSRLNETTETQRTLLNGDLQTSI
T1 sequence (P30874 whole entry): as above
Chain of SSTR5 (P35346 whole entry): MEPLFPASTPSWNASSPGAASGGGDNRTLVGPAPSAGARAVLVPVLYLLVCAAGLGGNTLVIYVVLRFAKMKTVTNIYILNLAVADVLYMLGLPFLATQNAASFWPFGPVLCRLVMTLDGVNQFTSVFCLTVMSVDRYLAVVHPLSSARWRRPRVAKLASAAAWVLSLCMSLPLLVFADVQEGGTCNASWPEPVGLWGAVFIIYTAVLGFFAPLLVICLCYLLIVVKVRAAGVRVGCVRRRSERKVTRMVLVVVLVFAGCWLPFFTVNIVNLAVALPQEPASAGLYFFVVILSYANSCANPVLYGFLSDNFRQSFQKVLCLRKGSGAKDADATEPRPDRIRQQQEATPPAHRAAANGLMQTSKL
T2 sequence (P35346 whole entry): as above

| Molecule | IC50 (SSTR2) [nM] | IC50 (SSTR5) [nM] | Ratio 2/5 in % (SSTR5) [%] | IC50 (somatostatin receptor 2 [1]) [nM] | IC50 (somatostatin receptor 5 [2]) [nM] | Ratio 2/5 in % (somatostatin receptor 5 [3]) [%] | also measured |
| --- | --- | --- | --- | --- | --- | --- | --- |
| CSCC[C@@H]1NC(=O)[C@H]([C@@H](C)O)NC(=O)[C@H](CCCCN)NC(=O)[C@@H](Cc2c[nH]c3ccccc23)NC(=O)[C@H](Cc2ccc(F)cc2)NC(=O)[C@H](Cc2ccccc2)N(C)C1=O [P2292, cyclo[Phe(4-F)-DTrp-Lys-Thr-Met-(N-Me)Phe]] (cyclo([Phe(4-F)][dW]KTM[NMeF])) | 0.152 | 7.61 | 2.0 | – | – | – | – |
| CSCC[C@@H]1NC(=O)[C@H]([C@@H](C)O)NC(=O)[C@H](CCCCN)NC(=O)[C@@H](Cc2c[nH]c3ccccc23)NC(=O)[C@@H]2CSCN2C(=O)[C@H](Cc2ccccc2)NC1=O [P2297, cyclo[ThioPro-DTrp-Lys-Thr-Met-Phe]] (cyclo([Thz][dW]KTMF)) | 12.8 | 34.5 | 37.1 | – | – | – | – |
| CSCC[C@@H]1NC(=O)[C@H]([C@@H](C)O)NC(=O)[C@H](CCCCN)NC(=O)[C@@H](Cc2c[nH]c3ccccc23)NC(=O)[C@H](C(c2ccccc2)c2ccccc2)NC(=O)[C@H](Cc2ccccc2)N(C)C1=O [P2326, cyclo[DiphenylAla-DTrp-Lys-Thr-Met-(N-Me)Phe]] (cyclo([Dip][dW]KTM[NMeF])) | 0.177 | 42.2 | 0.42 | – | – | – | – |
| CSCC[C@@H]1NC(=O)[C@H](C(C)C)NC(=O)[C@H](CCCCN)NC(=O)[C@@H](Cc2c[nH]c3ccccc23)NC(=O)[C@H](Cc2cccc3ccccc23)NC(=O)[C@H](Cc2ccccc2)N(C)C1=O [P2329, cyclo[1Nal-DTrp-Lys-Val-Met-(N-Me)Phe]] (cyclo([1Nal][dW]KVM[NMeF])) | 0.437 | 4.17 | 10.5 | – | – | – | – |
| B1 | – | – | – | 0.501 | 25.9 | 1.9 | – |
| B2 | – | – | – | 37.4 | 9.37 | 399 | – |
| B3 | – | – | – | 0.501 | 3.27 | 15.3 | – |
| B4 | – | – | – | 1.22 | 19.9 | 6.1 | – |
| B5 | – | – | – | 0.198 | 20.7 | 0.96 | – |
| B6 | – | – | – | – | – | – | IC50 (somatostatin receptor 2 [4]): 0.089 nM; IC50 (somatostatin receptor 5 [5]): 627 nM; Ratio 2/5 in % (somatostatin receptor 5 [6]): 0.014% |
| B7 | – | – | – | – | – | – | IC50 (somatostatin receptor 2 [4]): 0.21 nM; IC50 (somatostatin receptor 5 [5]): 249 nM; Ratio 2/5 in % (somatostatin receptor 5 [6]): 0.084% |
| B8 | – | – | – | – | – | – | Ratio 2/5 in % (somatostatin receptor 5 [6]): 0.15% |
